Biological target: Centrolobium microchaete seed lectin (Centrolobium microchaete)
Experiment: crystal structure; CML co-crystallised with 5 mM MDM; 200 mM ammonium sulfate, 100 mM HEPES pH 7.5, 25% PEG 3350; space group C121, one dimer per asymmetric unit; dimer also checked by PISA

With “Centrolobium microchaete seed lectin (natural protein)” the stoichiometry N was 2.

From article PMC11822720
